The data set can be described thus: total protein half-life in vivo (active degradation + dilution); higher = more stable protein.
Where [1] appears, read: E. coli NCM3722 delta-clpP delta-lon delta-hslV, growth: N-lim chemostat, doubling time 6 h.
[2] abbreviates: E. coli NCM3722 delta-clpP, growth: N-lim chemostat, doubling time 6 h.
Setting [3] is: E. coli NCM3722 delta-hslV, growth: N-lim chemostat, doubling time 6 h.
The mark [4] stands for this setting: E. coli NCM3722 delta-lon, growth: N-lim chemostat, doubling time 6 h.
The mark [5] stands for this setting: E. coli NCM3722 delta-smpB, growth: N-lim chemostat, doubling time 6 h.
[6] abbreviates: wild type E. coli NCM3722, growth: C-lim chemostat, doubling time 3 h.
Where [7] appears, read: wild type E. coli NCM3722, growth: C-lim chemostat, doubling time 6 h.
[8] abbreviates: wild type E. coli NCM3722, growth: C-lim chemostat, doubling time 12 h.
Where [9] appears, read: wild type E. coli NCM3722, growth: N-lim chemostat, doubling time 6 h.
The mark [10] stands for this setting: wild type E. coli NCM3722, growth: N-lim chemostat, doubling time 12 h.
Where [11] appears, read: wild type E. coli NCM3722, growth: P-lim chemostat, doubling time 6 h.
Setting [12] is: wild type E. coli NCM3722, growth: P-lim chemostat, doubling time 12 h.

± gives the standard deviation of the averaged measurements.

In the case of “MSVIKMTDLDLAGKRVFIRADLNVPVKDGKVTSDARIRASLPTIELALKQGAKVMVTSHLGRPTEGEYNEEFSLLPVVNYLKDKLSNPVRLVKDYLDGVDVAEGELVVLENVRFNKGEKKDDETLSKKYAALCDVFVMDAFGTAHRAQASTHGIGKFADVACAGPLLAAELDALGKALKEPARPMVAIVGGSKVSTKLTVLDSLSKIADQLIVGGGIANTFIAAQGHDVGKSLYEADLVDEAKRLLTTCNIPVPSDVRVATEFSETAPATLKSVNDVKADEQILDIGDASAQELAEILKNAKTILWNGPVGVFEFPNFRKGTEIVANAIADSEAFSIAGGGDTLAAIDLFGIADKISYISTGGGAFLEFVEGKVLPAVAMLEERAKK [P0A799]”, the “total protein half-life in vivo” value worked out at 5.45 ± 0.47 h under setting [1]; 5.27 ± 0.49 h under setting [2]; 4.91 ± 0.11 h under setting [3]; 5.68 ± 0.45 h under setting [4]; 4.66 ± 0.14 h under setting [5]; 3.28 ± 0.049 h under setting [6]. Further, the “total protein half-life in vivo” value runs as follows: under setting [7], 6.24 ± 0.46 h; under setting [8], 12.8 ± 0.99 h; under setting [9], 4.92 ± 0.11 h; under setting [10], 8.6 ± 0.45 h; under setting [11], 5.69 ± 0.4 h; under setting [12], 12 ± 0.29 h.
With “MSFFISDAVAATGAPAQGSPMSLILMLVVFGLIFYFMILRPQQKRTKEHKKLMDSIAKGDEVLTNGGLVGRVTKVAENGYIAIALNDTTEVVIKRDFVAAVLPKGTMKAL [P0ADZ7]”, the “total protein half-life in vivo” value by setting is: under setting [1], 5.95 ± 0.52 h; under setting [2], 6.69 ± 0.75 h; under setting [3], 5.78 ± 0.33 h; under setting [4], 5.892 ± 0.037 h; under setting [5], 6.28 ± 0.31 h; under setting [6], 3.16 ± 0.14 h. Further, the “total protein half-life in vivo” value reads like this: under setting [7], 6.018 ± 0.04 h; under setting [8], 11.5 ± 0.56 h; under setting [9], 5.64 ± 0.49 h; under setting [10], 12.8 ± 2 h; under setting [11], 6.55 ± 0.62 h; under setting [12], 13 ± 0.39 h.
Consider “MDHAIYTAMGAASQTLNQQAVTASNLANASTPGFRAQLNALRAVPVEGLSLPTRTLVTASTPGADMTPGKMDYTSRPLDVALQQDGWLAVQTADGSEGYTRNGSIQVDPTGQLTIQGHPVIGEAGPIAVPEGAEITIAADGTISALNPGDPANTVAPVGRLKLVKATGSEVQRGDDGIFRLSAETQATRGPVLQADPTLRVMSGVLEGSNVNAVAAMSDMIASARRFEMQMKVISSVDDNAGRANQLLSMS”, for which the “total protein half-life in vivo” value runs as follows: under setting [6], 0.504 ± 0.13 h; under setting [8], 3.33 ± 1.4 h.
Regarding “MQNITQSWFVQGMIKATTDAWLKGWDERNGGNLTLRLDDADIAPYHDNFHQQPRYIPLSQPMPLLANTPFIVTGSGKFFRNVQLDPAANLGIVKVDSDGAGYHILWGLTNEAVPTSELPAHFLSHCERIKATNGKDRVIMHCHATNLIALTYVLENDTAVFTRQLWEGSTECLVVFPDGVGILPWMVPGTDEIGQATAQEMQKHSLVLWPFHGVFGSGPTLDETFGLIDTAEKSAQVLVKVYSMGGMKQTISREELIALGKRFGVTPLASALAL”, the “total protein half-life in vivo” value under setting [1] amounted to 3.93 h; the “total protein half-life in vivo” value under setting [2] was determined as 2.62 h; the “total protein half-life in vivo” value under setting [3] was 2.77 ± 0.41 h; the “total protein half-life in vivo” value under setting [5] was found to be 2.45 h; the “total protein half-life in vivo” value under setting [7] turned out to be 5.1 h; the “total protein half-life in vivo” value under setting [8] is over 16 h. Further, the “total protein half-life in vivo” value reads like this: under setting [10], 3.97 h; under setting [11], 4.9 h; under setting [12], 10.1 ± 0.11 h.
In the case of “MRGEFYQQLTNDLETARAEGLFKEERIITSAQQADITVADGSHVINFCANNYLGLANHPDLIAAAKAGMDSHGFGMASVRFICGTQDSHKELEQKLAAFLGMEDAILYSSCFDANGGLFETLLGAEDAIISDALNHASIIDGVRLCKAKRYRYANNDMQELEARLKEAREAGARHVLIATDGVFSMDGVIANLKGVCDLADKYDALVMVDDSHAVGFVGENGRGSHEYCDVMGRVDIITGTLGKALGGASGGYTAARKEVVEWLRQRSRPYLFSNSLAPAIVAASIKVLEMVEAGSELRDRLWANARQFREQMSAAGFTLAGADHAIIPVMLGDAVVAQKFARELQKEGIYVTGFFYPVVPKGQARIRTQMSAAHTPEQITRAVEAFTRIGKQLGVIA [P0AB77]”, the “total protein half-life in vivo” value under setting [1] stood at 5.66 ± 1.2 h; the “total protein half-life in vivo” value under setting [2] amounted to 4.59 ± 0.16 h; the “total protein half-life in vivo” value under setting [3] was determined as 4.78 ± 0.57 h; the “total protein half-life in vivo” value under setting [4] was determined as 4.56 ± 0.44 h; the “total protein half-life in vivo” value under setting [5] was 4.39 ± 0.082 h; the “total protein half-life in vivo” value under setting [6] is 3.46 ± 0.59 h. For the same sequence, the “total protein half-life in vivo” value under setting [7] worked out at 5.66 ± 0.2 h; the “total protein half-life in vivo” value under setting [9] stood at 4.55 ± 0.25 h; the “total protein half-life in vivo” value under setting [10] was 6.84 ± 0.5 h; the “total protein half-life in vivo” value under setting [11] worked out at 6.03 ± 0.29 h; the “total protein half-life in vivo” value under setting [12] is 11.11 ± 0.03 h.
As for “MKHDHFVVQSPDKPAQQLLLLFHGVGDNPVAMGEIGNWFAPLFPDALVVSVGGAEPSGNPAGRQWFSVQGITEDNRQARVDAIMPTFIETVRYWQKQSGVGANATALIGFSQGAIMVLESIKAEPGLASRVIAFNGRYASLPETASTATTIHLIHGGEDPVIDLAHAVAAQEALISAGGDVTLDIVEDLGHAIDNRSMQFALDHLRYTIPKHYFDEALSGGKPGDDDVIEMM”, the “total protein half-life in vivo” value came out at 4.732 ± 0.016 h under setting [1]; 2.76 ± 0.035 h under setting [3]; 3.46 ± 0.23 h under setting [4]; 2.67 ± 0.22 h under setting [5]; 3.16 ± 0.45 h under setting [6]; 6.03 ± 2.2 h under setting [7]. Moreover, the “total protein half-life in vivo” value runs as follows: under setting [8], 5.97 ± 1.4 h; under setting [9], 2.93 ± 0.19 h; under setting [10], 3.93 ± 0.66 h; under setting [11], 4.46 ± 0.27 h; under setting [12], 6.94 ± 0.16 h.
Regarding “MRNKPFYLLCAFLWLAVSHALAADSTITIRGYVRDNGCSVAAESTNFTVDLMENAAKQFNNIGATTPVVPFRILLSPCGNAVSAVKVGFTGVADSHNANLLALENTVSAASGLGIQLLNEQQNQIPLNAPSSALSWTTLTPGKPNTLNFYARLMATQVPVTAGHINATATFTLEYQ”, the “total protein half-life in vivo” value is, setting by setting: under setting [5], 5.58 ± 0.25 h; under setting [6], 2.61 h; under setting [7], 5.55 h; under setting [8], 15.7 h; under setting [9], over 8 h; under setting [10], 13.4 h. Also, the “total protein half-life in vivo” value was found to be 5.52 h under setting [11] and 9.2 h under setting [12].

Values taken from the supplement of paper PMC11246515.
